Test results as given in the supplement of paper PMC12764529.
± gives the half width of the 95% confidence interval.

Test: folding stability dG unfold from trypsin proteolysis; higher = more stable
Summary of the method: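 Sequencing followed digestion of designed mini-proteins with trypsin and chymotrypsin, each at 11 concentrations in threefold dilutions together with a no-protease condition. The mini-proteins were under 80 residues, had no cysteine, sat in a PA-tagged cDNA display construct, and were kept only if AlphaFold2 dimer inter-PAE was above 15. From the counts, Bayesian fitting gave K50, and unfolding free energy was derived against a sequence-predicted unfolded-state K50 and a shared folded-state K50, per protease or combined.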

Compared with “SAGGSAGGMKVRVKIEVEGKTLEIEIEVPEEKREEALEKAKKLAEKLAEELDVEVKIVEVEEEPSAGGSAGG [r6_459_TrROS_Hall]”, “SAGGSGIDFDIEFHNNHITIDIYMYDPNGQPIFEMTMTIPIPPVPPPPVPEVKVDDPEEAKEAKNQSAGGSA [r2_332_TrROS]” is lower in “folding stability dG unfold” value: 4.36 ± 0.142 kJ/mol for the first, 3.14 ± 0.586 kJ/mol for the second.

Compared with “SAGGSAGGSEEELKKLLDNIKEVKVVENENGEKYVVFTVTDKNGKKITIVAKSPEARELAKKLSAGGSAGGS [r12_466_TrROS_Hall]”, “SAMIIVAMAPDRMLIIGPDGRVLVVDDPEKAIELIKELFPVPIIVIPVPEDSPVFRELLERLERERTGESAG [r14_235_TrMRF]” is higher in “folding stability dG unfold” value: 6.05 ± 0.276 kJ/mol for the first, 11.3 ± 0.335 kJ/mol for the second.

First: SAGGSAGGSAAMTVSEVSSSPDPSSDYLSFEVRTTETVKVPGTKAPVTTTVTTTPTKVSKLLSAGGSAGGSA [r18_41_JUSTAS]
Second: SAGGSAGGSAGPYVVTIELPSGERIEVAVPAERLEEHVEELKPLVEPARITVRPVAPDALSAGGSAGGSAGG [r11_103_TrMRF]
The “folding stability dG unfold” value of the first is lower: -0.993 ± 0.502 kJ/mol for the first, 0.599 ± 0.0837 kJ/mol for the second.

Going from “SDLDPNSTLVFSAPFPVSDPDALLEHAETVARELGPDVRVERVVFDPNTPNVAVVEVSVPGGTVTLVYSRSA [r9_1079_TrMRF]” to “SAGPITITYDEETGTLTITATVAPGEEVTFKLTFVDEETGVVVTEVEETVTVKEGDTVTITVKVEKLPPSAG [r5_737_TrROS_Hall]”, the “folding stability dG unfold” value rises from 5.2 ± 0.0711 kJ/mol to 9.15 ± 0.586 kJ/mol.

Compared with “SAGGSAKPELVKKLKEALEEEFPDLKVEVVKVDKKNKKIYIKVKSEEEKKRIAELLKKLGIEVEIESAGGSA [r15_196_TrROS_Hall]”, “SAGGSAGGSASWITITGLLPGGRLVTTRYDPSTGSVSTETTPIPPVPAFPLGPENLALNFLLSAGGSAGGSA [r18_236_JUSTAS]” is lower in “folding stability dG unfold” value: 12.8 ± 1.05 kJ/mol for the first, 2.95 ± 0.184 kJ/mol for the second.

Compared with “SAGGSAGGSYYMIEIEFPDTGQRITFPFKSLEEAKEFLPPGAPIREIEVQPIKPPVDPEQQNESAGGSAGGS [r12_851_TrROS]”, “SAGGFVTFKAPPVLIEAFKKAGLTPSEAKTLLLPVKFGDKEVVVEVTFYPETGEVKVKVLSFGTEFEAESAG [r5_545_TrMRF]” is higher in “folding stability dG unfold” value: 3.39 ± 0.226 kJ/mol for the first, 9.31 ± 0.289 kJ/mol for the second.

Compared with “SAGMVVIEVKKDEVPVDPEKALVFEFGDKRYILVDGEKAEEIKDAFPNLDIKIKPVSPEELEKLLKAHSAGG [r19_271_TrMRF]”, “SAGGSAGGSAGGKHKIPITNVHVSPPNGYIHVTIRFPGDGKPIEIHFPVPPGEPITIEISAGGSAGGSAGGS [r10_940_TrROS]” is higher in “folding stability dG unfold” value: 4.93 ± 0.213 kJ/mol for the first, 9.54 ± 0.586 kJ/mol for the second.

First: SAGGSAGGSDTLEYEVPLEDGSTIRITLFPDGTARVELEDGTPVAEIEVPPDTSIEELIARIRSAGGSAGGS [r12_990_TrMRF]
Second: SAGGSAGGSGSLLEKLGLEPNSTVTVTVTPEEAEKIRAEPRVKEIKREPTPEDTYLYTITVVASAGGSAGGS [r12_750_JUSTAS]
The “folding stability dG unfold” value of the first is higher: 11.5 ± 0.339 kJ/mol for the first, -2.95 ± 1.34 kJ/mol for the second.

Going from “SAGGSAGGMKEGEEFEIELPDKYKVKIRVKDNIIEVEFPPGLRVRAEILENGEVKVYLPPELKPSAGGSAGG [r6_970_TrMRF]” to “SAGGSAGGSAGGDRLKIIIPFPPGMDIDQIAEELKPHFKKVEIEHDKEDGWVTIEVELDSAGGSAGGSAGGS [r10_1007_TrROS]”, the “folding stability dG unfold” value falls from 8.54 ± 0.364 kJ/mol to 1.13 ± 0.406 kJ/mol.

Going from “SAGGGPDLVIDVEILEIRVEPEPGKTATIRVRALIYNPETDTWTLAEFEIRIPDDGSVEVRFRVEPLRSAGG [r13_917_TrMRF]” to “SAGGSAGGSAGGAPVEVKTAVFRHPDNPRWYVLRVARLPGTGRLVVVLFDPETGEFAVFPSAGGSAGGSAGG [r7_923_TrMRF]”, the “folding stability dG unfold” value falls from 12.9 ± 0.343 kJ/mol to 3.16 ± 0.364 kJ/mol.

Going from “SNWITLKHTIKHPGREIKIEITAQPNPGGPYWIQVNIEVRDPNGEKEEVEITVPFRGMSIEDFLKNAADASA [r9_217_TrROS]” to “SAGGSAGGSAGMTIKEDPKTGTRVVRLPDGSVLYIEEKGDKIKKVYSDPVPPVPPGNPALASAGGSAGGSAG [r3_406_JUSTAS]”, the “folding stability dG unfold” value falls from 11.9 ± 0.502 kJ/mol to 0.907 ± 0.109 kJ/mol.

Compared with “SAGGSAGGDRLEVVAPVDDPVEQAREFAERLREEFRRRYPDREIDRVEVFYDPGARTLHVRLYPSAGGSAGG [r6_662_TrMRF]”, “SAGGSAGGSAGGSPKRVTMYFIIPFYILIPKEDADGNNEWVIIPITIIIKIEIELPPGDSAGGSAGGSAGGS [r4_326_TrROS]” is higher in “folding stability dG unfold” value: 8.86 ± 0.109 kJ/mol for the first, 18.8 ± 0.628 kJ/mol for the second.

First: SAGGEELIKELLDKLPPDVKEATIEIEVDGKKVTLTVNEDGEVTLEVIDPETKEKKTFKIKNGKIEPVSAGG [r13_803_TrROS_Hall]
Second: FEELRNLPGLSLTPLAEEGEVRVYRLSLPPSVLAARGLPGVTVTVTVFPDGSYTVLPDDVPALEAAGLVVES [r1_256_JUSTAS]
The “folding stability dG unfold” value of the first is higher: 10.3 ± 1.17 kJ/mol for the first, 4.39 ± 0.0837 kJ/mol for the second.

First: SAGGSPTREVVLPTKDPTADKAFYTVRITLTEPPSNSTAVTVTFLDLPPDVEPSPELVAAVEAALSSAGGSA [r2_7_JUSTAS]
Second: SAGGSPVYKVEIRMTIVDKNGTVKSIVNLELTFKTEEEIEKFLESIPKETVVEIEIEKRTVEPPEKLSAGGS [r16_677_JUSTAS]
The “folding stability dG unfold” value of the first is lower: 1.93 ± 0.151 kJ/mol for the first, 8.87 ± 0.23 kJ/mol for the second.

Going from “SAGGSKKTLTITVKNKETGETVKIKVELTPDGKKIKITIVAKKEEEAKEAAKKLLEELGYKVEIVPSAGGSA [r2_30_TrROS_Hall]” to “SAGKPLTPDEAKELAEELVDAFAEEFARRHGMPPDDMKVIEVEETPDGYIQVTFRMPNMPMKFEIPVKDSAG [r5_565_TrROS]”, the “folding stability dG unfold” value falls from 13.2 ± 1.51 kJ/mol to 1.82 ± 0.238 kJ/mol.

With “SAGGVITIRIPGIDNRNPETMRSKAVEIADRLRDHGVTVTDVEWDPDQGSMTITVMLPGQSLEDILKSAGGS [r8_344_TrROS]” the “folding stability dG unfold” value was 7.9 ± 0.259 kJ/mol.
